In patent US20200299400A1 (published 2020):
Blank lines part the entries; values can stand above or below the binder they belong to.

Biological target: T1, human GITR on cells (human, UniProt Q9Y5U5 26-241)
T1 chain: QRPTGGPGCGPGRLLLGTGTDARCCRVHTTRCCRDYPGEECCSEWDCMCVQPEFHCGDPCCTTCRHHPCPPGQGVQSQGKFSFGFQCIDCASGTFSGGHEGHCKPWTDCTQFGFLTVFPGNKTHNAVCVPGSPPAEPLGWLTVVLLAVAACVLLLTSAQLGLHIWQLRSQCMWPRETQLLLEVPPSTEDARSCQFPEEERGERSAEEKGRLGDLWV
Assay: FACS binding to activated human CD4 T cells

EC50: 277 pM
B1: anti-GITR-IgG2 (antibody)
heavy: QVQLVESGGGVVQPGRSLRLSCAASGFTFSSYGMHWVRQAPGKGLEWVAVIWYEGSNKYYADSVKGRFTISRDNSKNTLYLQMNSLRAEDTAVYYCARGGSMVRGDYYYGMDVWGQGTTVTVSSASTKGPSVFPLAPCSRSTSESTAALGCLVKDYFPEPVTVSWNSGALTSGVHTFPAVLQSSGLYSLSSVVTVPSSNFGTQTYTCNVDHKPSNTKVDKTVERKCCVECPPCPAPPVAGPSVFLFPPKPKDTLMISRTPEVTCVVVDVSHEDPEVQFNWYVDGVEVHNAKTKPREEQFNSTFRVVSVLTVVHQDWLNGKEYKCKVSNKGLPAPIEKTISKTKGQPREPQVYTLPPSREEMTKNQVSLTCLVKGFYPSDIAVEWESNGQPENNYKTTPPMLDSDGSFFLYSKLTVDKSRWQQGNVFSCSVMHEALHNHYTQKSLSLSPGK
light: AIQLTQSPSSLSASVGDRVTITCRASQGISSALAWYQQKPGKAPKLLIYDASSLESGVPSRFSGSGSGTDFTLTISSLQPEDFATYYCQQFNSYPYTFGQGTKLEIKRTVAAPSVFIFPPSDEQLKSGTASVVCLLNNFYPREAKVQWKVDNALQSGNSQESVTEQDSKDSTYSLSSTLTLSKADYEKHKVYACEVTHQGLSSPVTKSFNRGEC

EC50: 163 pM
B2: anti-GITR-IgG2-IgG1.1 (antibody)
heavy: QVQLVESGGGVVQPGRSLRLSCAASGFTFSSYGMHWVRQAPGKGLEWVAVIWYEGSNKYYADSVKGRFTISRDNSKNTLYLQMNSLRAEDTAVYYCARGGSMVRGDYYYGMDVWGQGTTVTVSSASTKGPSVFPLAPCSRSTSESTAALGCLVKDYFPEPVTVSWNSGALTSGVHTFPAVLQSSGLYSLSSVVTVPSSNFGTQTYTCNVDHKPSNTKVDKTVERKCCVECPPCPAPPVAGPSVFLFPPKPKDTLMISRTPEVTCVVVDVSHEDPEVKFNWYVDGVEVHNAKTKPREEQYNSTYRVVSVLTVLHQDWLNGKEYKCKVSNKALPSSIEKTISKAKGQPREPQVYTLPPSREEMTKNQVSLTCLVKGFYPSDIAVEWESNGQPENNYKTTPPVLDSDGSFFLYSKLTVDKSRWQQGNVFSCSVMHEALHNHYTQKSLSLSPG
light: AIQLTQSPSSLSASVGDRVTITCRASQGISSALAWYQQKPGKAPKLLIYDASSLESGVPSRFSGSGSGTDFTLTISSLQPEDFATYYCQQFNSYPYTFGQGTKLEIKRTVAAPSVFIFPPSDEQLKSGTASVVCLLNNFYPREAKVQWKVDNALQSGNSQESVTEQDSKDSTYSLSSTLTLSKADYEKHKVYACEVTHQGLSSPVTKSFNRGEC
